Laboratory results reported in patent US20090246189A1 (Biogen, published 2009).

Biological target: T1, endogenous EGFR in mouse ventral midbrain (VM) tissue (mouse, UniProt Q01279 25-1210)
T1 construct: Native protein in a tissue extract
Test: co-immunoprecipitation from mouse ventral midbrain extracts, Western blot
Description: COS-7 or HEK 293 cells (100 mm dishes) were transfected with Sp35, EGFR and Sp35/EGFR. The cells were harvested after 48 hours and lysed in 1 ml lysis buffer (50 mM HEPES, pH 7.5, 150 mM NaCl, 1.5 mM MgCl₂, 1 mM EDTA, 1% Triton x-100, 10% glycerol) or RIPA buffer (50 mM TRIS, pH 7.2, 1% Triton X-100, 0.5% sodium deoxycholate, 0.1% SDS, 150 mM NaCl, 10 mM MgCl₂, 5% glycerol) for 30 minutes at 4° C. After centrifugation at 14,000×g for 15 minutes, the supernatants were incubated with Protein A/G-Sepharose beads (Santa Cruz Biotechnology) at 4° C. for 1 hour, and then 200 μl of the precleared lystates were incubated with either anti-EGFR (Santa Cruz Biotechnology) at 4° C. for 1 hour, anti-Sp35 antibody (Biogen Idec, described in U.S. Provisional Patent Application No. 60/697,336, which is incorporated by reference herein in its entirety) followed by treatment with Protein A/G-Sepharose beads. The beads were washed 3 times with lysis buffer, boiled in Laemmeli sample buffer, subjected to 4-20% SDS-PAGE, and analyzed by Western blotting with anti-EGFR antibody or anti-Sp35 antibody. The EGFR and Sp35 antibodies were visualized using anti-rabbit IgG-HRP.
Sp35 KO or WT VMs were lysed in RIPA buffer and pre-cleared by Protein A/G plus-Sepharose beads as described above. […]

B1: endogenous Sp35 (LINGO-1) in mouse ventral midbrain (VM) tissue (receptor, UniProt Q9D1T0 36-614, looked up)
chain: CPPRCECSAQDRAVLCHRKRFVAVPEGIPTETRLLDLGKNRIKTLNQDEFASFPHLEELELNENIVSAVEPGAFNNLFNLRTLGLRSNRLKLIPLGVFTGLSNLTKLDISENKIVILLDYMFQDLYNLKSLEVGDNDLVYISHRAFSGLNSLEQLTLEKCNLTSIPTEALSHLHGLIVLRLRHLNINAIRDYSFKRLYRLKVLEISHWPYLDTMTPNCLYGLNLTSLSITHCNLTAVPYLAVRHLVYLRFLNLSYNPIGTIEGSMLHELLRLQEIQLVGGQLAVVEPYAFRGLNYLRVLNVSGNQLTTLEESAFHSVGNLETLILDSNPLACDCRLLWVFRRRWRLNFNRQQPTCATPEFVQGKEFKDFPDVLLPNYFTCRRAHIRDRKAQQVFVDEGHTVQFVCRADGDPPPAILWLSPRKHLVSAKSNGRLTVFPDGTLEVRYAQVQDNGTYLCIAANAGGNDSMPAHLHVRSYSPDWPHQPNKTFAFISNQPGEGEANSTRATVPFPFDIKTLIIATTMGFISFLGVVLFCLVLLFLWSRGKGNTKHNIEIEYVPRKSDAGISSADAPRKFNMKMI
notes: Native protein in a tissue extract; Sp35 knock-out VM served as the control
B1: binds.
